Experiment: melting temperature; melt of duplexes
Details: sodium 0.0675 M; strand 1 µM

For “CGACGTGCAAAATGTGCTG+CAGCACATGGGGCACGTCG ((((((((...((((((((+))))))))...))))))))”, the Tm was 51.7 °C.
Substance “CGACGTGCCGAATGTGCTG+CAGCACATGCCGCACGTCG ((((((((.(.((((((((+)))))))).).))))))))” has a Tm of 51.5 °C.
“CGACGTGCTCGATGTGCTG+CAGCACATTCTGCACGTCG ((((((((...((((((((+))))))))...))))))))” showed a Tm of 49.4 °C.
For “CGACGTGCTTCATGTGCTG+CAGCACATCTGGCACGTCG ((((((((...((((((((+))))))))...))))))))”, the Tm was 48.9 °C.
With “CGACGTGCGCGATGTGCTG+CAGCACATTACGCACGTCG (((((((((..((((((((+))))))))..)))))))))” the Tm was 54.9 °C.
With “CGACGTGCGCAATGTGCTG+CAGCACATGGTGCACGTCG ((((((((.(.((((((((+)))))))).).))))))))” the Tm was 54.3 °C.
With “CGACGTGCTGTATGTGCTG+CAGCACATATGGCACGTCG ((((((((..(((((((((+)))))))))..))))))))” the Tm was 54.4 °C.
“CGACGTGCTAAATGTGCTG+CAGCACATGAAGCACGTCG (((((((((..((((((((+))))))))..)))))))))” gave a Tm of 54.6 °C.
Substance “CGACGTGCTAAATGTGCTG+CAGCACATTAGGCACGTCG ((((((((..(((((((((+)))))))))..))))))))” has a Tm of 53.8 °C.
For “CGACGTGCTTGATGTGCTG+CAGCACATTCAGCACGTCG (((((((((..((((((((+))))))))..)))))))))”, the Tm was 51.9 °C.
“CGACGTGCCATATGTGCTG+CAGCACATTTTGCACGTCG ((((((((.(.((((((((+)))))))).).))))))))” gave a Tm of 49.6 °C.
“CGACGTGCGAAATGTGCTG+CAGCACATTTCGCACGTCG (((((((((((((((((((+)))))))))))))))))))” gave a Tm of 64.7 °C.
Substance “CGACGTGCGTGATGTGCTG+CAGCACATCGTGCACGTCG ((((((((..(((((((((+)))))))))..))))))))” has a Tm of 54.5 °C.
For “CGACGTGCTTTATGTGCTG+CAGCACATATTGCACGTCG ((((((((..(((((((((+)))))))))..))))))))”, the Tm was 51.2 °C.
In the case of “CGACGTGCAGGATGTGCTG+CAGCACATCCGGCACGTCG ((((((((.((((((((((+)))))))))).))))))))”, the Tm is reported as 62.2 °C.
With “CGACGTGCTAAATGTGCTG+CAGCACATGCTGCACGTCG ((((((((...((((((((+))))))))...))))))))” the Tm was 50.1 °C.
“CGACGTGCATTATGTGCTG+CAGCACATTAGGCACGTCG ((((((((.(.((((((((+)))))))).).))))))))” showed a Tm of 51.9 °C.
Substance “CGACGTGCAATATGTGCTG+CAGCACATCATGCACGTCG (((((((((..((((((((+))))))))..)))))))))” has a Tm of 50.3 °C.
In the case of “CGACGTGCCGAATGTGCTG+CAGCACATGTCGCACGTCG ((((((((...((((((((+))))))))...))))))))”, the Tm is reported as 51.4 °C.
Work on “CGACGTGCGCAATGTGCTG+CAGCACATGTTGCACGTCG ((((((((...((((((((+))))))))...))))))))” yielded a Tm of 51.5 °C.
For “CGACGTGCCTAATGTGCTG+CAGCACATGGTGCACGTCG ((((((((...((((((((+))))))))...))))))))”, the Tm was 48.3 °C.
For “CGACGTGCCCCATGTGCTG+CAGCACATTGAGCACGTCG ((((((((.(.((((((((+)))))))).).))))))))”, the Tm was 50.1 °C.
Substance “CGACGTGCTCCATGTGCTG+CAGCACATTATGCACGTCG ((((((((...((((((((+))))))))...))))))))” has a Tm of 47.6 °C.
“CGACGTGCAAAATGTGCTG+CAGCACATTATGCACGTCG (((((((((.(((((((((+))))))))).)))))))))” gave a Tm of 55.1 °C.
Work on “CGACGTGCCTTATGTGCTG+CAGCACATCGAGCACGTCG ((((((((...((((((((+))))))))...))))))))” yielded a Tm of 48.3 °C.
“CGACGTGCTCAATGTGCTG+CAGCACATATCGCACGTCG ((((((((...((((((((+))))))))...))))))))” showed a Tm of 47.5 °C.
“CGACGTGCCCCATGTGCTG+CAGCACATGGGGCACGTCG (((((((((((((((((((+)))))))))))))))))))” showed a Tm of 67.7 °C.
“CGACGTGCGCAATGTGCTG+CAGCACATGGGGCACGTCG ((((((((.(.((((((((+)))))))).).))))))))” showed a Tm of 56.5 °C.
“CGACGTGCTTCATGTGCTG+CAGCACATACGGCACGTCG ((((((((...((((((((+))))))))...))))))))” gave a Tm of 47.7 °C.
Work on “CGACGTGCTCGATGTGCTG+CAGCACATGGAGCACGTCG ((((((((((.((((((((+)))))))).))))))))))” yielded a Tm of 59.3 °C.
In the case of “CGACGTGCCACATGTGCTG+CAGCACATATTGCACGTCG ((((((((.(.((((((((+)))))))).).))))))))”, the Tm is reported as 47.4 °C.
With “CGACGTGCAATATGTGCTG+CAGCACATCAAGCACGTCG ((((((((...((((((((+))))))))...))))))))” the Tm was 48 °C.
For “CGACGTGCTGAATGTGCTG+CAGCACATGTAGCACGTCG (((((((((..((((((((+))))))))..)))))))))”, the Tm was 54.3 °C.
In the case of “CGACGTGCTCGATGTGCTG+CAGCACATGGCGCACGTCG ((((((((.(.((((((((+)))))))).).))))))))”, the Tm is reported as 50.8 °C.
Work on “CGACGTGCACTATGTGCTG+CAGCACATGATGCACGTCG (((((((((..((((((((+))))))))..)))))))))” yielded a Tm of 48.8 °C.
In the case of “CGACGTGCAGCATGTGCTG+CAGCACATACGGCACGTCG ((((((((.(.((((((((+)))))))).).))))))))”, the Tm is reported as 49.3 °C.
With “CGACGTGCAGAATGTGCTG+CAGCACATTGCGCACGTCG ((((((((..(((((((((+)))))))))..))))))))” the Tm was 52.1 °C.
In the case of “CGACGTGCTCGATGTGCTG+CAGCACATCAGGCACGTCG ((((((((..(((((((((+)))))))))..))))))))”, the Tm is reported as 55.4 °C.
“CGACGTGCGGGATGTGCTG+CAGCACATAAAGCACGTCG ((((((((...((((((((+))))))))...))))))))” showed a Tm of 53.6 °C.
“CGACGTGCGCTATGTGCTG+CAGCACATTTTGCACGTCG ((((((((...((((((((+))))))))...))))))))” gave a Tm of 48.3 °C.
For “CGACGTGCCGTATGTGCTG+CAGCACATAGAGCACGTCG ((((((((..(((((((((+)))))))))..))))))))”, the Tm was 53.1 °C.
Substance “CGACGTGCGTTATGTGCTG+CAGCACATGAGGCACGTCG ((((((((.(.((((((((+)))))))).).))))))))” has a Tm of 54.1 °C.
Work on “CGACGTGCGCTATGTGCTG+CAGCACATTTGGCACGTCG ((((((((...((((((((+))))))))...))))))))” yielded a Tm of 49.2 °C.
With “CGACGTGCCTAATGTGCTG+CAGCACATAACGCACGTCG ((((((((.(.((((((((+)))))))).).))))))))” the Tm was 48.2 °C.
Work on “CGACGTGCGAAATGTGCTG+CAGCACATTCTGCACGTCG ((((((((..(((((((((+)))))))))..))))))))” yielded a Tm of 53.7 °C.
For “CGACGTGCATGATGTGCTG+CAGCACATTTAGCACGTCG ((((((((...((((((((+))))))))...))))))))”, the Tm was 49.8 °C.
With “CGACGTGCTGAATGTGCTG+CAGCACATACAGCACGTCG ((((((((((.((((((((+)))))))).))))))))))” the Tm was 58.6 °C.
“CGACGTGCACAATGTGCTG+CAGCACATTATGCACGTCG (((((((((.(((((((((+))))))))).)))))))))” gave a Tm of 52.8 °C.
For “CGACGTGCAAGATGTGCTG+CAGCACATTGTGCACGTCG (((((((((..((((((((+))))))))..)))))))))”, the Tm was 50.6 °C.
“CGACGTGCCTTATGTGCTG+CAGCACATAACGCACGTCG ((((((((.((((((((((+)))))))))).))))))))” showed a Tm of 52.2 °C.
With “CGACGTGCGGAATGTGCTG+CAGCACATAACGCACGTCG (((((((((..((((((((+))))))))..)))))))))” the Tm was 58.6 °C.
In the case of “CGACGTGCATCATGTGCTG+CAGCACATATTGCACGTCG (((((((((..((((((((+))))))))..)))))))))”, the Tm is reported as 50.3 °C.
